Measured values taken from paper PMC4898653 (2017).

What was measured:
[1] = molecular target: factor XIa (Homo sapiens, UniProt P03951); experiment: enzyme inhibition
[2] = molecular target: kallikrein-6 (Homo sapiens, UniProt Q92876); experiment: enzyme inhibition
[3] = molecular target: T1, anionic trypsin (Homo sapiens, UniProt P07478); experiment: enzyme inhibition
T1 chain: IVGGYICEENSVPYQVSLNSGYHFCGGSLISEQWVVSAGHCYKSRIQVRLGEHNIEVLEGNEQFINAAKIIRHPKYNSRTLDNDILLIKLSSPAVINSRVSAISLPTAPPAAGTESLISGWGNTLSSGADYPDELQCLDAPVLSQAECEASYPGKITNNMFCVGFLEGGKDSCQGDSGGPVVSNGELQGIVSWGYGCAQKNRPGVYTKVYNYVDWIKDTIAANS

[4] = molecular target: cationic trypsin (Homo sapiens, UniProt P07477); experiment: enzyme inhibition
[5] = molecular target: T2, mesotrypsin (Homo sapiens, UniProt P35030); experiment: competitive inhibition of Z-GPR-pNA cleavage
T2 chain: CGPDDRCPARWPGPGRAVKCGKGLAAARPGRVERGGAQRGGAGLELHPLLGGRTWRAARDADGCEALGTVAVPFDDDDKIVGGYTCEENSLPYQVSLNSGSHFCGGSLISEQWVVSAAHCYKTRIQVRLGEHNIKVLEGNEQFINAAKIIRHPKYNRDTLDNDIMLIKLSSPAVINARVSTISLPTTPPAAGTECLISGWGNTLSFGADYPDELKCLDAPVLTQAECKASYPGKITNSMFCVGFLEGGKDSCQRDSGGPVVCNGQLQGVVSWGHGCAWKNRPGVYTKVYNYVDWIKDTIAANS

Chain of factor XIa (P03951 388-625): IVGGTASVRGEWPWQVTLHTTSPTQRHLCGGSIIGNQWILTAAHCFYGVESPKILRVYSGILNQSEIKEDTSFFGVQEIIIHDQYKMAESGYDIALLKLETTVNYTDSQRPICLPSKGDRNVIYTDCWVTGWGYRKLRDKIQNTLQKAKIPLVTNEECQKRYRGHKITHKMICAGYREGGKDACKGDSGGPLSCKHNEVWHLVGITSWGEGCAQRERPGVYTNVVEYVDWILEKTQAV

- Ki [1]: 0.41 nM
- Ki [2]: 2.23 nM
- Ki [3]: 0.00174 nM
- Ki [4]: 0.00627 nM
- Ki [5]: 131 nM
B1: APPI Kunitz domain (protein)
chain: VREVCSEQAETGPCRAMISRWYFDVTEGKCAPFFYGGCGGNRNNFDTEEYCMAVCGSA
